Square brackets hold non-standard residues; d marks the D form. Primed or numbered codes have the meaning given here. Ends that are not written are not given here. acetamidofluorescein″ = acetamidofluorescein (5-iodoacetamidofluorescein attached to the C-terminal Cys); pS = N[C@@H](COP(=O)(O)O)C(=O)O; Sar = CNCC(=O)O

Substrate in experiment [1]: CBP KIX, wild type (Example 20) (UniProt P45481)
The experiment in a line: FP, fluorescein-labelled PPKID4^P variant titrated with CBP KIX.

Substrate in experiment [2]: CBP KIX, wild type (Example 20) (UniProt P45481)
The experiment is described as follows: FP with CBP KIX.

The target of experiment [3] is GST-KIXY650A (UniProt P45481). The experiment is described as follows: FP, 25 nM fluorescein-labelled peptide titrated with GST-KIXY650A, 25 C.
Sequence of GST-KIXY650A (P45481 586-665 Y650A): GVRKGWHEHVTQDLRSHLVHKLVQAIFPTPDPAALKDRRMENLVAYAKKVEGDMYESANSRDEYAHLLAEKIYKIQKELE

Sequence of CBP KIX, wild type (Example 20) (P45481 586-665 limits assumed): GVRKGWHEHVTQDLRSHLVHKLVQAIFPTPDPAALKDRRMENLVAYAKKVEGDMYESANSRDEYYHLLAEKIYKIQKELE

B1: PPKID4^P P8Z (designed binder)
peptide: GPSQPTY[Sar]GDDAPVRRL[pS]FFYILLDLYLDAPGVC(acetamidofluorescein″)-NH2
One may read the Kd as the constant that tells how readily two partners part at equilibrium. For the molecule B1, in experiment [1], the Kd turned out to be 780 nM. Besides, the ΔΔG relative to wild type PPKID4^P in experiment [2] worked out at 0.15 kcal/mol.

B2: KID-AB^P (peptide)
peptide: TDSQKRREILSRRP[pS]YRKILNDLSSDAPGVC-NH2
modifications: also: C-terminal Cys acetamidofluorescein-labelled in direct assays, unlabelled as competitor
B2: in experiment [3], the fold less stable than the wild type GST-KIX complex was found to be 15 fold.

B3: PPKID4^P P5Z (designed binder)
peptide: GPSQ[Sar]TYPGDDAPVRRL[pS]FFYILLDLYLDAPGVC(acetamidofluorescein″)-NH2
With B3, the dissociation constant Kd in experiment [1] was 800 nM. Moreover, the ΔΔG relative to wild type PPKID4^P in experiment [2] was determined as 0.16 kcal/mol.

B4: PPKID4^P P2Z (designed binder)
peptide: G[Sar]SQPTYPGDDAPVRRL[pS]FFYILLDLYLDAPGVC(acetamidofluorescein″)-NH2
As for B4, the Kd in experiment [1] came out at 830 nM. Further, the ΔΔG relative to wild type PPKID4^P in experiment [2] was determined as 0.18 kcal/mol.

For the origin of these results see patent publication US20110028686A1, “Protein binding miniature proteins” (Yale University, priority 2000, published 2011).
